Target: the molecule itself

## IRIDIRIDIRG [Peptide IRIDIRIDIRG (SID)]
  binding result: binds

Source: doi:10.1101/2024.11.05.622117 (bioRxiv, 2024)
